We go through 20 sequences from a protein production outcome set (Wang et al. 2014).
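Further: failed if final PepcDB status was selected cloned or expressed and not failed if soluble or beyond.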

The data set can be described thus: label from the status in PepcDB records.
As for “AEICLITGTPGSGKTLKMVSMMANDEMFKPDENGIRRKVFTNIKGLKIPHTYIETDAKKLPKSTDEQLSAHDMYEWIKKPENIGSIVIVDEAQDVWPARSAGSKIPENVQWLNTHRHQGIDIFVLTQGPKLLDQNLRTLVRKHYHIASNKMGMRTLLEWKICADDPVKMASSAFSSIYTLDKKVYDLYESAEVHTVNKVKRSK”, the protein production result is listed as “not failed”. Then “MNQEKIADLKNWMHQEKIDFTYISDPGHIAYFSGYESEPHERVLALFIAADDQSFLFTPALEVEDAEKSSWTYPVYGYLDSENPWEKIAALLNKRTQGTPRFALEKQALSLARFDQLKTYFPASDFSHDVTPLIEKLQLIKTEPEIQRLLEAGSWADVAFEIGFKAIQAGVAEQEIVAEIEYQLKRQGIRSMSFDTLVLTGKNGASPHGVPGETKIEPHDLVLFDLGVVHNGYCSDATRTVSYLEPSDFQKEIYGIVLEAQLAATEAVKPGVTAGELDDIARGVITKAGYGEYFNHRLGHGIGTTVHEYPSLVHGNDLVIEEGMCFSIEPGIYIPGKVGVRIEDCLHVTKTGSEPFTKTTKELQIIQ”, with “failed”; and “MEKKVGTDRVKRGMAQMQKGGVIMDVVNAEQAKIAEEAGAVAVMALERVPSDIRAAGGVARMADPRIVEEVMNAVSIPVMAKARIGHITEARVLEAMGVDYIDESEVLTPADDEFHLLKSDFTVPFVCGCRDIGEALRRIGEGAAMLRTKGEPGTGNIVEAVRHMRQVNGQIRQIASMTDDELMVAAKNFGAPYELVKEIKTLGKLPVVNFAAGGVATPADAALMMELGADGVFVGSGIFKSDNPAKFASAIVQATTYYTDYELIGKLSKELGSPMKGIEMSRLNPEDRMQDRSF”, with “failed”; and “MKKWLLAAGLGLALATSAQAADKIAIVNMGSLFQQVAQKTGVSNTLENEFKGRASELQRMETDLQAKMKKLQSMKAGSDRTKLEKDVMAQRQTFAQKAQAFEQDRARRSNEERGKLVTRIQTAVKSVANSQDIDLVVDANAVAYNSSDVKDITADVLKQVK”, with “not failed”. “MGPRRLLLVAACFSLCGPLLSARTRARRPESKATNATLDPRSFLLRNPNDKYEPFWEDEEKNESGLTEYRLVSINKSSPLQKQLPAFISEDASGYLTSSWLTLFVPSVYTGVFVVSLPLNIMAIVVFILKMKVKKPAVVYMLHLATADVLFVSVLPFKISYYFSGSDWQFGSELCRFVTAAFYCNMYASILLMTVISIDRFLAVVYPMQSLSWRTLGRASFTCLAIWALAIAGVVPLLLKEQTIQVPGLNITTCHDVLNETLLEGYYAYYFSAFSAVFFFVPLIISTVCYVSIIRCLSSSAVANRSKKSRALFLSAAVFCIFIICFGPTNVLLIAHYSFLSHTSTTEAAYFAYLLCVCVSSISCCIDPLIYYYASSECQRYVYSILCCKESSDPSSYNSSGQLMASKMDTCSSNLNNSIYKKLLT”: the protein production entry is on record as “failed”. Then “MAQRIFTLILLLCSTSVFAGLFDAPGRSQFVPADQAFAFDFQQNQHDLNLTWQIKDGYYLYRKQIRITPEHAKIADVQLPQGVWHEDEFYGKSEIYRDRLTLPVTINQASAGATLTVTYQGCADAGFCYPPETKTVPLSEVVANNAAPQPVSVPQQEQPTAQLPFSALWALLIGIGIAFTPCVLPMYPLISGIVLGGKQRLSTARALLLTFIYVQGMALTYTALGLVVAAAGLQFQAALQHPYVLIGLAIVFTLLAMSMFGLFTLQLPSSLQTRLTLMSNRQQGGSPGGVFVMGAIAGLICSPCTTAPLSAILLYIAQSGNMWLGGGTLYLYALGMGLPLMLITVFGNRLLPKSGPWMEQVKTAFGFVILALPVFLLERVIGDVWGLRLWSALGVAFFGWAFITSLQAKRGWMRIVQIILLAAALVSVRPLQDWAFGATHTAQTQTHLNFTQIKTVDELNQALVEAKGKPVMLDLYADWCVACKEFEKYTFSDPQVQKALADTVLLQANVTANDAQDVALLKHLNVLGLPTILFFDGQGQEHPQARVTGFMDAETFSAHLRDRQP”, with “failed”. Consider “MSQTLFWIAAACALAYLAMTARPASLMRSAVKTASVALLALMVLVSGGPVLLVLALALCALGDWLLSRETEATFMAGVGAFAAGHLAYVALFLTHPASDTGQLAAQWPLVAGLAALGLVMASLLAPRAGDLKGPVLAYVPIILGMGLAALTLPQAGVLAWVLPAAAAFIASDMILATEKFLLPPGHPALRLTPYLVWPLYWGAQMGFALALT”, for which the protein production entry is recorded as “failed”. Consider “MDIVTNKIVVEKYNFETTMEENQPFENKIELEVHEVEPVDGNVELMAKGKIFKITIPFLLVLENFRIDGRISRIIQLKDFFGQFSDLEAKDVEGLSNPLIDYIKRLTYDVTEIAFDEPGVSLDF”, for which the protein production result is on record as “failed”. The entry for “LESKIVDISTRFINTPIDDLDREIEAALQAIGAFVDADRSYVFLFDDEAATMSNTHEWRTEATASTQSRLQNIPYAETPWFMARMRRREGPLRVPRLEDLPPDAAGLRQRLEAGNVQSLLVLPMLNDQDLIGFVGFDAVRQQRDWDADTVMLLRVLSDAISNALQRKTAEKEMLAAKEEAEDANRMKS” is “failed”; for “MISAWLLVLISITYISLLFLIAWAGDRHPGLYKRRLARTHIYGLSLAVYFTSWTFYGAVGRATQEGLAFLPIYLGPLLVFIFFAPLLRRIIYISKRNNSTSIADFIASRYGKSQVLAAMVAIFALIGSVPYIALQLKAIALGFNVLSGTGDSYQELSTAAWNDSAWYITLALAVFTVLFGTRHLESTEHHRGMIQAVAFESLIKLIAFVAVGLFVGYGLYDGFGDLFTRVREADLMGTLTTESLEAPAFLTQTLVAMLAIICLPRQFHVMVVENTDHRDFEVARWAMPIYLIIASAFVIPIAAAGLLSTHLAGSDPDIVILQLPIMAGEHWLAVLAFLGGGSAAAAMVIVCSVAIATMVSNEIIMPGLLKFFRPGMNRRTDLSFLLLTIRRVAIFVVLLTAYGFYRMAGEDYSLTAFGLLSFAAAAQFGPALVGGILWRQGNFTGAAWGLGLGFLMWCYTLLLPALVSTGWVADTLIEHGLFGWNWTRPTALFGSELDQISHGILWSLGVNTGAYILLSLITRQRIREKIQIAAFFHDAQPKAENAQHQSWQGEILTSDLQALTDRFMGEERSESIFRNYERRNAIRLYPQRPASTHLMKYIERQLASVIGASTARVVLESTLTGRDMQIEDVVSIVDEASQAMTFSRELLQSAIENISLGVSVVNHQQQLVVWNHRYLELFNYPKGFVRVGRPVEDLMRYNLTNANLSARRIDDIVENRCNSMREGKPMSYERQRPDGTVVRVDGSPIPGGGYVTTFQDITAMRRTEQALKETNIYLEQRVRERTQELQVINEQMLKAKSVAEQANQSKTRFLASASHDLLQPLNAARLFTSALSGKVNEGETRDLVDHIDSSLGAAEEIISTLLDISKLDAGALEPDIGVFPVNELLRHLATEFSAIAKDQGLELHVVPSTAWVRSDAKLLRRVVQNFLSNAIRYTASGKILMGCRRLKGYLRIEVWDTGPGMSDDQLNHIFEEFRRFQHGRDKKGLGLGLAIVDRISGMLNHPVTVHSIQGKGSVFGITVPVAPADQSRLDAQKSGSSSRRVSNLGGLHVLCIDNDAAILQGMVALLGNWQCDVTAAESLDDALTKLDGRQPDIILADYQLDDNRNGLDAMDSIREHLGNDIPGILITGYMAPEVRDDAGNRGYQVLYKPVKPAALRALVNKLLKQKRS” it is “failed”.

On to “MDDLASQSFPEPERAIMKATYQVLCEYGYADLTIQQIADEYGKTTTAVHYHCDTKNKLLTAFLDYLLEELADSVHNIRTTNPENRLKFLLDELLVKSKNEPVLSIALLEMQSQTPYKEPFRERFKQMAVVNRQTELDFTVSETA”, for which the protein production entry is recorded as “failed”. On to “MFDTKIAVILRDDLAVWQKLNVTAFLMSGIVAQTGEIIGEPYRDGAGNVYNPLSIQPIVVMATDQEALRKIHQRSLERDITTSLYIEEMFATGHDAANRQVFSHFSPDTAKVVGMALRADRKIVDKITKGAKLHA”, for which the protein production entry is given as “not failed”. The entry for “MHDATDSLPLCMTRPTRFRWVWWLLAYASLATGIVGIFVPGLPTTVLILNLRLGRLTWLRSRLHYWLLSHPRFGPAIVEWQTYRAVSRKAKWMATLTMSICAAIMLWCVPVFWVKCLSIGSMAVVAIWLWLRPEPPPRPLPAAH” is “failed”.

For “IMAKTAKVAVSQIVEHPALDATRQGLLDGLKAKGYEEGKNLEFDYKTAQGNPAIAVQIARQFVGENPDVLVGIATPTAQALVSATKTIPIVFTAVTDPVGAKLVKQLEQPGKNVTGLSDLSPVEQHVELIKEILPNVKSIGVVYNPGEANAVSLMELLKLSAAKHGIKLVEATALKSADVQSATQAIAEKSDVIYALIDNTVASAIEGMIVAANQAKTPVFGAATSYVERGAIASLGFDYYQIGVQTADYVAAILEGKEPGSLDVQVAKGSDLVINKTAAEQLGITIPEAVLARATSTK”, the protein production entry is “not failed”.

Consider “MAPQPFDIDTPSLRVFLPAPELATGRAIVACPGGGYGGLAVNHEGYDWAPYFNKQGIALIVLKYRMPHGDRTLPISDAEAAMKMARDSADVWNLNPYDIGIMGSSAGGHLASTIATHTRPELRPNFQILFYPVITMDKSYTHIGSHDNLLGKDAFAELETEFSNEKQVTKETPRAFIAYSDDDKTVPPANGVNYYLGLHKNHVPAVLHIYASGGHGWGIRENFIYLEHHHHHH”, for which the protein production result is “failed”. For the sequence “MINLWPLLLPAAAWSGWWLANRSNSNKDAHVHNRLSREYVVGLNYLLNEQSDKAVDVFIKLLEVDSDTVETHLALGSLFRRRGEVDRAIRIHQNLIARPQLSIQQRKEALMALGQDYMSAGVFDRAERIFLEVVELGGSRDTSSLQGLLAIYQQEKAWEKALDIIKKLEISTGASFHNQAAHYYCEMASQALKINAMDRAIYCIKQAMNVDPESVRASLMNATIEIKEGRYKQAIRSLKRVPQQDAEFLTEIIEPLVLCHKELDSMPDCIHYLEQTLEKHPRASVIFVIADYLRQNKGMDIAIDFVADNLSKHPSIRGLNRLIYWHLESAHGKVREKLQMLYDITSKFLDNKPIYRCGHCGFGGKHLHWHCPSCKQWGRMKPIHGLEGD”, the protein production result is “failed”. The entry for “SVTFSYLAETDYPVFTLGGSTADAARRLAASGCACAPVLDGERYLGMVHLSRLLEGRKGWPTVKEKLGEELLETVRSYRPGEQLFDNLISVAAAKCSVVPLADEDGRYEGVVSRKRILGFLAERI” is “not failed”.

Turning to “MKTDTEWLLCDFHVHTNMSDGHLPLGEVVDLFGKHGVDVVSITDHIVDRRTLEQRKRNGEPLGAITEDKFQDYLKRLWREQKRAWEEYGMILIPGVEITNNTDLYHIVAVDVKEYVDPSLPVEEIVEKLKEQNALVIAAHPDRKKQDEEHLSWYLWANMERFKDTFDAWEIANRDDLFNSVGVKKYRYVANSDFHELWHVYSWKTLVKSEKNIEAIKEAIRKNTDVAIYLMRKNRLSSLSDVI”, the protein production result is “not failed”. Consider “MKRLDLVAGPNGAGKSTFVALTLAPLLPGIVFVNADEIAKQRWPDDPTSHAYQAAQVAADTRARLIDLGRPFIAETVFSHPSKLELIRTARTAGYTVVLHVLVIPEGLAVERVRHRVAAGGHDVPETKIRERHRRLAELVAQAITLADGATVYDNSRLAGPRIVAQFSGGGIIGRACWPSWTPPPLMSRWSNRPETA”, for which the protein production result is “failed”.

Take “MGIREDIKTVFEKDPAARSTLEVLCCYPGLHAIWMHRVAHSLWNKDLLFLARLTSHISRALTGIEIHPGAKLGKRVFIDHGSGVVIGETAEVGDDVLIYMGVVLGGTALEKKKRHPTVENNAVLGSGAIVLGPITIGRGAKVGAGSVVVRSVPPEATVVGVPARIAGTPQPSAPSEQLDHNKLPDPVLTVISQVLDRMSRLEERFQAHEKASTTPVPVSFVSSENPSVKKDEQIYSLLKDVIDPAVGIDIVNLGFVKEVTVNGTNVDVNLVLTTSACPMIEYFRNQVKRKVMGIKGIENVTVNILDEPWKWDGAGRQAFH”: the protein production result was “failed”.
